Reference: the RNAGym collection of RNA variant scans (doi:10.7554/elife.90254)

B1: OR4K15 (parent)
chain: GUUAACGGUCAUAGGCCAUGGAAACUAGGAGCACCAUUUCGCUGCCAGUGAAGAAAUGAACAAAGAAAAUCUGGGCCAGGCAGGCAUCAAAAGAAAUAGUCUUGCGCUCAACCAGAAAGUCUGUAAUCAUUUUAAGGGUA

Variants of: B1
Test: self-cleavage, relative activity (ratio to wild type); higher = more cleavage; in vitro, sequencing; the parent is a self-cleaving ribozyme

Compared with GUUAACGGUCAUAGGCCAUGGAAACUAGGAGCACCAUUUCGCUGCCAGUGAAGAAAUGAACAAAGAAAAUCUGGGCCAGGCAGGCAUCAAAAGAAAUAGUCUUGCGCUCAACCAGAAAGUCUGUAAUCCUUUUAAGGGUA [A129C], GUUAACGGUCAUAGGCCACGGAAACUAGGAGCACCAUUUCGCUGCCAGUGAAGAAAUGAACAAAGAAAAUCUGGGCCAGGCAGGCAUCAAAAGAAAUAGUCUUGCGCUCAACCAGAAAGUAUGUAAUCAUUUUAAGGGUA [U19C C121A] is higher in self-cleavage: 0.97 for the first, 2.88 for the second.

First: GUUAACGGCCAUAGGCCAUGGAAACUAGGAGCACCAUUUCGCUGCCAGUGAAGAAAUGAACAAAGAAAAUCUGGGCCAGGCAGGCAUCAAAAGAAAUAGCCUUGCGCUCAACCAGAAAGUCUGUAAUCAUUUUAAGGGUA [U9C U100C]
Second: GUUAACGGUCAUAGGCCAUGGAAACUAGGAGCACCAUUUCGCUGCCGGUGAAGAAAUGAACAAAGAAAAUCUGGGCCAGGCAGGCUUCAAAAGAAAUAGUCUUGCGCUCAACCAGAAAGUCUGUAAUCAUUUUAAGGGUA [A47G A86U]
The self-cleavage of the first is lower: 2.18 for the first, 2.98 for the second.

Going from GUUAACGGUCAUGGGCCAUGGAAGCUAGGAGCACCAUUUCGCUGCCAGUGAAGAAAUGAACAAAGAAAAUCUGGGCCAGGCAGGCAUCAAAAGAAAUAGUCUUGCGCUCAACCAGAAAGUCUGUAAUCAUUUUAAGGGUA [A13G A24G] to GUUAACGGUCAUUGGCCAUGGAAACUAGGAGCACCAUUUCGCUGCCAGUGAAGAAAUGAGCAAAGAAAAUCUGGGCCAGGCAGGCAUCAAAAGAAAUAGUCUUGCGCUCAACCAGAAAGUCUGUAAUCAUUUUAAGGGUA [A13U A60G], the self-cleavage falls from 1.05 to 0.32.

First: GUUAACGGUCAUAGGCCAUGGAAACUAGGAGCACCAUUUCGCUGCCAGUGAAGAAAUGAACAAAGGAAAUCUGGGCCAGGCAGGCAUCAAAAGAAAUAGCCUUGCGCUCAACCAGAAAGUCUGUAAUCAUUUUAAGGGUA [A66G U100C]
Second: GUUAACGGUCAUAGGCCAUGGAAGCUAGGAGCACCAUUUCGCUGCCAGUGAAGAAAUGAACAAAGAAAAACUGGGCCAGGCAGGCAUCAAAAGAAAUAGUCUUGCGCUCAACCAGAAAGUCUGUAAUCAUUUUAAGGGUA [A24G U70A]
The self-cleavage of the first is higher: 2.05 for the first, 1.17 for the second.

Compared with GUUAACGGUCAUAGGCCAUGGAAACUAGGAGCACCAUUUCGCUGCCAGUGAUGAAAUGAACAAAGAAAAUCUGAGCCAGGCAGGCAUCAAAAGAAAUAGUCUUGCGCUCAACCAGAAAGUCUGUAAUCAUUUUAAGGGUA [A52U G74A], GUUAACGGUCAUAGGCCAUGGAAACUAGGAGCACCAUUUCGCUGCCAGUGAAGAAAUGAACAAAGAAAAUCUGGGCCAGGCAGGCAUCAAAAGAAAUAGUCUUGCGCUCUACCAGAAAGUCUGAAAUCAUUUUAAGGGUA [A110U U124A] is higher in self-cleavage: 0.16 for the first, 0.9 for the second.

Compared with GUUAACGGUCAUAGGCCAUGGAAACUAGGAGCACCAUUUUGCUGCCAGUGAAGAAAUGAACAAAGAAAAUCAGGGCCAGGCAGGCAUCAAAAGAAAUAGUCUUGCGCUCAACCAGAAAGUCUGUAAUCAUUUUAAGGGUA [C40U U72A], GUUAACGGUCAUAGGCCAUGGAAUCUAGGAGCACCAUUUCGCUGCCAGUGGAGAAAUGAACAAAGAAAAUCUGGGCCAGGCAGGCAUCAAAAGAAAUAGUCUUGCGCUCAACCAGAAAGUCUGUAAUCAUUUUAAGGGUA [A24U A51G] is higher in self-cleavage: 0.34 for the first, 1.78 for the second.

First: GUUGACGGUCAUAGGCCAUGGAAACUAGGAGCACCAUUUCGCUGCCAGUGAAGAAAUGAACAAAGAAAAUCCGGGCCAGGCAGGCAUCAAAAGAAAUAGUCUUGCGCUCAACCAGAAAGUCUGUAAUCAUUUUAAGGGUA [A4G U72C]
Second: GUUAACGGUCAUAGGCCAUGGAAACUAGGAGCACCAUUUCGCUGCCAGUGAAGAAAUGAACAAAGAAAGUCUGGGCCAGGCAGGCAUCCAAAGAAAUAGUCUUGCGCUCAACCAGAAAGUCUGUAAUCAUUUUAAGGGUA [A69G A89C]
The self-cleavage of the first is lower: 0.21 for the first, 1.65 for the second.

First: GUUAACGGUCAUAGGCCAUAGAAACUAGGAGCACCAUUUCGCUGCCAGUGAAGAAAUGAACAAAGAAAAUCUGGGCCAGGCAGGCAUCAAAGGAAAUAGUCUUGCGCUCAACCAGAAAGUCUGUAAUCAUUUUAAGGGUA [G20A A92G]
Second: GUUAACGGUCAUAGGCCAUGGAAACUAGGAGCACCAUUUCGCUGCCAGUGAAGAAAUGAACAAAGAAAAUCUGGGCCAGGCGGGCAUCAAAAGAAAUAGUCUUGCGCUCAACCAGAAAGUCUGUAAUCAUUAUAAGGGUA [A82G U132A]
The self-cleavage of the first is higher: 2.46 for the first, 0.91 for the second.

Going from GUUAACGGUCAUAGGCCAUGGAAACUAGGAGCACCAUUUCGCUGCCAGUGAAGAAAUGAACAAAGAAAGUCUGGGCCAGGCAGGCAUCAAAAGAUAUAGUCUUGCGCUCAACCAGAAAGUCUGUAAUCAUUUUAAGGGUA [A69G A95U] to GUUAACGGUCAUAGGCCAUGGAAACUAGGAGCACCAUUUCGCUGCCAGUGAAGAGAUGAACAAAGAAAAUCUGGGCCAGGCAGGCAUCAAAAGAAAUAGUCUUGCGCUCAGCCAGAAAGUCUGUAAUCAUUUUAAGGGUA [A55G A111G], the self-cleavage falls from 1.56 to 0.03.

Compared with GUUAACGGUCAUAGGCCAUGGAAACUAGGAGCACCAUUUCGCUGCCAGUGAAGAAAUGAACAAAGGGAAUCUGGGCCAGGCAGGCAUCAAAAGAAAUAGUCUUGCGCUCAACCAGAAAGUCUGUAAUCAUUUUAAGGGUA [A66G A67G], GUUAACGGUCAUAGGCCAUGGAAACUAGGAGCACCAUUUCGCUGCCAGUGAAGAAUUGGACAAAGAAAAUCUGGGCCAGGCAGGCAUCAAAAGAAAUAGUCUUGCGCUCAACCAGAAAGUCUGUAAUCAUUUUAAGGGUA [A56U A59G] is higher in self-cleavage: 1.22 for the first, 1.62 for the second.
